Source: doi:10.1101/2022.05.05.490751

How the values were obtained:
Experiment in all cases: SPR
[1] = target: NYE 3A peptide on HLA-A*02:01
[2] = target: NYE 6V peptide on HLA-A*02:01
[3] = target: NYE 4E5E8E peptide on HLA-A*02:01
[4] = target: NYE 3Y peptide on HLA-A*02:01
[5] = target: NYE 6T peptide on HLA-A*02:01
[6] = target: NYE 4D peptide on HLA-A*02:01
[7] = target: NYE 9V peptide (NYE-ESO157-165, heteroclitic 9V variant) on HLA-A*02:01

Kd [1]: 7 µM
Kd [2]: 17 µM
Kd [3]: 18 µM
Kd [4]: 55 µM
Kd [5]: 161 µM
Kd [6]: 139 µM
Kd [7]: 8 µM
Substance: Soluble 1G4 TCR
